Source: the FLAb antibody collection

B1: unnamed (protein)
chain 1: QVQLVQSGAELKKPGSSVKVSCKASGYIFTSSWINWVKQAPGQGLEWIGRIDPSDGEVHYNQDFKDKATLTVDKSTNTAYMELSSLRSEDTAVYYCARGFLPWFADWGQGTLVTVSS
chain 2: DIQMTQSPSTLSASVGDRVTITCKASENVDTYVSWYQQKPGKAPKLLIYGASNRYTGVPSRFSGSGSGTDFTLTISSLQPDDFATYYCGQSYNYPFTFGQGTKVEVK
B2: unnamed (protein)
chain 1: QVQLVESGGGVVQPGRSLRLSCAASGFTFSSYDMSWVRQAPGKGLEWVAKVSSGGGSTYYLDTVQGRFTISRDNSKNTLYLQMNSLRAEDTAVYYCARHLHGSFASWGQGTTVTVSS
chain 2: EIVLTQSPATLSLSPGERATLSCQASQSISNFLHWYQQRPGQAPRLLIRYRSQSISGIPARFSGSGSGTDFTLTISSLEPEDFAVYYCQQSGSWPLTFGGGTKVEIK
B3: unnamed (protein)
chain 1: EVQLVQSGAEVKKPGSSVKVSCKASGYTITDSNIHWVRQAPGQSLEWIGYIYPYNGGTDYNQKFKNRATLTVDNPTNTAYMELSSLRSEDTAFYYCVNGNPWLAYWGQGTLVTVSS
chain 2: DIQLTQSPSTLSASVGDRVTITCRASESLDNYGIRFLTWFQQKPGKAPKLLMYAASNQGSGVPSRFSGSGSGTEFTLTISSLQPDDFATYYCQQTKEVPWSFGQGTKVEVK
B4: unnamed (protein)
chain 1: EVQLVESGGGVVQPGRSLRLSCSASGFTFSGYGLSWVRQAPGKGLEWVAMISSGGSYTYYADSVKGRFAISRDNAKNTLFLQMDSLRPEDTGVYFCARHGDDPAWFAYWGQGTPVTVSS
chain 2: DIQLTQSPSSLSASVGDRVTITCSVSSSISSNNLHWYQQKPGKAPKPWIYGTSNLASGVPSRFSGSGSGTDYTFTISSLQPEDIATYYCQQWSSYPYMYTFGQGTKVEIK
B5: unnamed (protein)
chain 1: QVQLVESGGGVVQPGRSLRLSCAASGFTFSSFGMHWVRQAPGKGLEWVAVISFDGSIKYSVDSVKGRFTISRDNSKNTLFLQMNSLRAEDTAVYYCARDRLNYYDSSGYYHYKYYGMAVWGQGTTVTVSS
chain 2: QSVLTQPPSVSAAPGQKVTISCSGSSSNIGNNYVSWYQQLPGTAPKLLIYDNNKRPSGIPDRFSGSKSGTSTTLGITGLQTGDEADYYCGTWDSRLSAVVFGGGTKLTVL
B6: unnamed (protein)
chain 1: QVQLQESGPGLVKPSETLSLTCAVSGGSISGGYGWGWIRQPPGKGLEWIGSFYSSSGNTYYNPSLKSQVTISTDTSKNQFSLKLNSMTAADTAVYYCVRDRLFSVVGMVYNNWFDVWGPGVLVTVSS
chain 2: ESALTQPPSVSGAPGQKVTISCTGSTSNIGGYDLHWYQQLPGTAPKLLIYDINKRPSGISDRFSGSKSGTAASLAITGLQTEDEADYYCQSYDSSLNAQVFGGGTRLTVL
B7: unnamed (protein)
chain 1: EVQLVESGGGVVQPGKSLRLSCAASGLTFSSYAVHWVRQAPGKGLEWVTLISYDGANQYYADSVKGRFTISRDNSKNTVYLQMNSLRPEDTAVYYCAVPGPVFGIFPPWSYFDNWGQGILVTVSS
chain 2: EIVLTQSPATLSVSPGERATLSCRASQVISHNLAWYQQKPGQAPRLLIYGASTRASGIPARFSGSGSGTDYTLTITSLQSEDFAVYYCQHYSNWPPRLTFGGGTKVEIK
B8: unnamed (protein)
chain 1: QVQLVQSGAEVKRPGASVKVSCKASGYTFTNDIIHWVRQAPGQRLEWMGWINAGYGNTQYSQNFQDRVSITRDTSASTAYMELISLRSEDTAVYYCAREPLWFGESSPHDYYGMDVWGQGTTVTVSS
chain 2: AIQLTQSPSSLSASVGDRVTITCRASQGISSALAWYQQKPGKAPKLLIYDASSLESGVPSRFSGSGSGTDFTLTISSLQPEDFATYYCQQFNSYPLTFGGGTKVEIK
B9: unnamed (protein)
chain 1: EVQLVESGGGLVQPGGSLRLSCAASGFTLRSYSMNWVRQAPGKGLEWVSYISRSSHTIFYADSVKGRFTISRDNAKNSLYLQMDSLRDEDTAMYYCARVYSSGWHVSDYFDYWGQGILVTVSS
chain 2: B8 chain 2
B10: unnamed (protein)
chain 1: EVQLVQSGAEVKKPGASVKVSCKASGYTLTSYGISWVRQAPGQGLEWMGWVSFYNGNTNYAQKLQGRGTMTTDPSTSTAYMELRSLRSDDTAVYYCARGYGMDVWGQGTTVTVSS
chain 2: ESALTQPASVSGSPGQSITISCTGTSSDVGGYNSVSWYQQHPGKAPKLMIYEVSNRPSGVSNRFSGSKSGNTASLTISGLQAEDEADYYCNSYTSTSMVFGGGTKLTVL
B11: unnamed (protein)
chain 1: EVQLVESGGGLVQPGGSLRLSCAASGFTFSNYWISWVRQAPGKGLEWVAEIRSESDASATHYAEAVKGRFTISRDNAKNSLYLQMNSLRAEDTAVYYCLAYFDYGLAIQNYWGQGTLVTVSS
chain 2: EIVLTQSPATLSLSPGERATLSCKASKRVTTYVSWYQQKPGQAPRLLIYGASNRYLGIPARFSGSGSGTDFTLTISSLEPEDFAVYYCSQSYNYPYTFGQGTKLEIK
B12: unnamed (protein)
chain 1: EVQLVESGGGLVKPGGSLRLSCAASGFPFSKLGMVWVRQAPGKGLEWVSTISSGGGYTYYPDSVKGRFTISRDNAKNSLYLQMNSLRAEDTAVYYCAREGISFQGGTYTYVMDYWGQGTLVTVSS
chain 2: DIVMTQSPLSLPVTPGEPASISCRSSKSLLHRNGITYSYWYLQKPGQSPQLLIYQLSNLASGVPDRFSGSGSGTDFTLKISRVEAEDVGVYYCYQNLELPLTFGQGTKVEIK
B13: unnamed (protein)
chain 1: QVQLVQSGAEVKKPGSSVKVSCKASGYTFGNYWMQWVRQAPGQGLEWMGAIYEGTGKTVYIQKFADRVTITADKSTSTAYMELSSLRSEDTAVYYCARLSDYVSGFGYWGQGTTVTVSS
chain 2: DIQMTQSPSSLSASVGDRVTITCRASKDISKYLNWYQQKPGKAPKLLIYYTSGYHSGVPSRFSGSGSGTDFTLTISSLQPEDFATYYCQQGDALPPTFGGGTKVEIK
B14: unnamed (protein)
chain 1: EVQLVESGGGLVQPGGSLRLSCAASGFFITNNYWGWVRQAPGKGLEWVGYISYSGSTSYNPSLKSRFTISRDTSKNTFYLQMNSLRAEDTAVYYCARTGSSGYFDFWGQGTLVTVSS
chain 2: DIQMTQSPSSLSASVGDRVTITCRASESVDDLLHWYQQKPGKAPKLLIKYASQSISGVPSRFSGSGSGTDFTLTISSLQPEDFATYYCQQGNSLPNTFGQGTKVEIK
B15: unnamed (protein)
chain 1: QVQLVESGGGLVQPGGSLRLSCAASGFTFRSYAMSWVRQAPGKGLEWVSAISGRGDNTYYADSVKGRFTISRDNSKNTLYLQMNSLRAEDTAVYYCAKMTSNAFAFDYWGQGTLVTVSS
chain 2: QSVLTQPPSVSGAPGQRVTISCTGSSSNIGAGYGVHWYQQLPGTAPKLLIYGNTNRPSGVPDRFSGFKSGTSASLAITGLQAEDEADYYCQSYDSSLSGWVFGGGTKLTVL
B16: unnamed (protein)
chain 1: QVELVESGGGLVQPGGSLRLSCAASGFTFSSYAMSWVRQAPGKGLEWVSAINASGTRTYYADSVKGRFTISRDNSKNTLYLQMNSLRAEDTAVYYCARGKGNTHKPYGYVRYFDVWGQGTLVTVSS
chain 2: DIVLTQSPATLSLSPGERATLSCRASQSVSSSYLAWYQQKPGQAPRLLIYGASSRATGVPARFSGSGSGTDFTLTISSLEPEDFATYYCLQIYNMPITFGQGTKVEIK
B17: unnamed (protein)
chain 1: EVQLQQPGSELVRPGASVKLSCKASGYTFTSYWMHWVKQRPGQGLEWIGNIYPGSRSTNYDEKFKSKATLTVDTSSSTAYMQLSSLTSEDSAVYYCTRNGDYYVSSGDAMDYWGQGTSVTVSS
chain 2: DIQMTQTTSSLSASLGDRVTISCRTSQDIGNYLNWYQQKPDGTVKLLIYYTSRLHSGVPSRFSGSGSGTDFSLTINNVEQEDVATYFCQHYNTVPPTFGGGTKLEIK
B18: unnamed (protein)
chain 1: QVQLVQPGAEVKKPGTSVKLSCKASGYTFTTYWMHWVRQAPGQGLEWIGEINPTNGHTNYNQKFQGRATLTVDKSTSTAYMELSSLRSEDTAVYYCARNYVGSIFDYWGQGTLLTVSS
chain 2: DIVMTQSPDSLAMSLGERVTLNCKASENVVSYVSWYQQKPGQSPKLLIYGASNRESGVPDRFSGSGSATDFTLTISSVQAEDVADYHCGQSYNYPYTFGQGTKLEIK
B19: unnamed (protein)
chain 1: QVQLQESGPGLVRPSQTLSLTCTVSGFTFTDFYMNWVRQPPGRGLEWIGFIRDKAKGYTTEYNPSVKGRVTMLVDTSKNQFSLRLSSVTAADTAVYYCAREGHTAAPFDYWGQGSLVTVSS
chain 2: DIQMTQSPSSLSASVGDRVTITCKASQNIDKYLNWYQQKPGKAPKLLIYNTNNLQTGVPSRFSGSGSGTDFTFTISSLQPEDIATYYCLQHISRPRTFGQGTKVEIK

Experiment: patients with anti-drug antibodies; higher = more immunogenic

Row | Protein | patients with anti-drug antibodies [%]
1 | B1 | 7.8
2 | B2 | 0
3 | B3 | 0
4 | B4 | 8.7
5 | B5 | 2.4
6 | B6 | 0
7 | B7 | 1
8 | B8 | 1.7
9 | B9 | 2.9
10 | B10 | 0.3
11 | B11 | 1.6
12 | B12 | 6.5
13 | B13 | 8.7
14 | B14 | 5
15 | B15 | 2.9
16 | B16 | 0
17 | B17 | 0
18 | B18 | 0
19 | B19 | 5.1
